Reference: PMC2743173 (Neuron, 2008)

How the values were obtained:
LRP4N-Myc [1] = target: LRP4N-Myc (UniProt Q9QYP1); experiment: ELISA
LRP4N-Myc [2] = target: LRP4N-Myc (UniProt Q9QYP1 21-1723); experiment: ELISA
Sequence of LRP4N-Myc (UniProt Q9QYP1 21-1723) (Q9QYP1 21-1723): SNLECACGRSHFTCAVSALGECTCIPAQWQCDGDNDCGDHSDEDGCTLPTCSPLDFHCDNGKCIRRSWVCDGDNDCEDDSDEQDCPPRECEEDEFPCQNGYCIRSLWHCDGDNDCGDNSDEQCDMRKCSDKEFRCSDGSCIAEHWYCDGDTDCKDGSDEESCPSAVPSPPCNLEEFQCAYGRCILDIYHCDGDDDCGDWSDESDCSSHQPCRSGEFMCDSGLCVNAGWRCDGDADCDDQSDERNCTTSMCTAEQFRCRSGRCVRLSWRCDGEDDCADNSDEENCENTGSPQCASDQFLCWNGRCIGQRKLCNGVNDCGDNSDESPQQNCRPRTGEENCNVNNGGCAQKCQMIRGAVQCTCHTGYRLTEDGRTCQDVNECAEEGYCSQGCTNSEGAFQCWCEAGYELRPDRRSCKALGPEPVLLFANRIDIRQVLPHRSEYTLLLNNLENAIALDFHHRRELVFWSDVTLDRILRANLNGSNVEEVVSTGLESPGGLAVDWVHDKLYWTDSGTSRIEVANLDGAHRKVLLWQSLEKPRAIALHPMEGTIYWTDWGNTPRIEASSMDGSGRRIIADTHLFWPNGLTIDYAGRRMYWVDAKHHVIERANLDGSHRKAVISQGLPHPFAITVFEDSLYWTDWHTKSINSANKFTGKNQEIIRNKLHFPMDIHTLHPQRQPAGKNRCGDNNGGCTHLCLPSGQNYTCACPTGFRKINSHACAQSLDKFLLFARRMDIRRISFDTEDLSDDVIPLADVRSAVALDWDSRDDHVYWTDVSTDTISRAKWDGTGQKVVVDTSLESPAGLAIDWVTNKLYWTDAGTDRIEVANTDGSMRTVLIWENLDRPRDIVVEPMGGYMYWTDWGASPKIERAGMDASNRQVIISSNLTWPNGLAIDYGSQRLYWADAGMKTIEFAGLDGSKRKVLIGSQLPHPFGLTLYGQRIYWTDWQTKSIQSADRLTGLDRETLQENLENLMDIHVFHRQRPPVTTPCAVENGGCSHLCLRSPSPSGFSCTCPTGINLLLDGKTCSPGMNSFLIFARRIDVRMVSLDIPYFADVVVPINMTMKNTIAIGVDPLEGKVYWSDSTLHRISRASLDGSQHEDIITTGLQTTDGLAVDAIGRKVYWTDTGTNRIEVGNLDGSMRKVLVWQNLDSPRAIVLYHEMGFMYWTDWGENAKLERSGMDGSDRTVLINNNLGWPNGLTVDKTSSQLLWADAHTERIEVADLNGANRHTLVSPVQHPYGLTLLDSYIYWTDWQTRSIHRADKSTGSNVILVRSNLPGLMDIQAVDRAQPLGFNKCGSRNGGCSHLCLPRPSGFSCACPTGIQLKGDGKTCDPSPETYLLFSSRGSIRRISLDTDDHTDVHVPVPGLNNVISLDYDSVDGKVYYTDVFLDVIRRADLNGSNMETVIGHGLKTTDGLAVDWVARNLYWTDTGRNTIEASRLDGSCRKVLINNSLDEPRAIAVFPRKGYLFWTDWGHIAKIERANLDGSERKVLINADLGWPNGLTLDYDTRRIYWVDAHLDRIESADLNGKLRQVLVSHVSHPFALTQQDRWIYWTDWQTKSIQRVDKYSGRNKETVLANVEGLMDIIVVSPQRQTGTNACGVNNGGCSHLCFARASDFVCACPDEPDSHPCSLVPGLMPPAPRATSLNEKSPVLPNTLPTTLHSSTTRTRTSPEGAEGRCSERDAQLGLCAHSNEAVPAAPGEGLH

Sequence of LRP4N-Myc (UniProt Q9QYP1) (Q9QYP1 21-1723): as above

Row | Kd (LRP4N-Myc [1]) [nM] | Kd (LRP4N-Myc [2]) [nM] | Molecule
1 | 0.5 |  | nAgrin-AP (domain or fragment)
2 |  | 0.45 ± 0.041 | MuSK-AP (domain or fragment) EKLPKAPVITTPLETVDALVEEVATFMCAVESYPQPEISWTRNKILIKLFDTRYSIRENGQLLTILSVEDSDDGIYCCIANNGVGGAVESCGALQVKMKPKITRPPINVKIIEGLKAVLPCTTMGNPKPSVSWIKGDNALRENSRIAVLESGSLRIHNVQKEDAGQYRCVAKNSLGTAYSKLVKLEVEVFARILRAPESHNVTFGSFVTLRCTAIGIPVPTISWIENGNAVSSGSIQESVKDRVIDSRLQLFITKPGLYTCIATNKHGEKFSTAKAAATVSIAEWSKSQKDSQGYCAQYRGEVCDAVLAKDALVFFNTSYRDPEDAQELLIHTAWNELKAVSPLCRPAAEALLCNHLFQECSPGVVPTPMPICREYCLAVKELFCAKEWQAMEGKAHRGLYRSGMHLLPVPECSKLPSMHRDPTACTRLPYLDYKKENITTFPSITSSRPSADIPNLPASTSSFAVSPAYSMT
